Literature values, collected in publication PMC3253018.

Target: NiV-G attachment glycoprotein (Nipah virus) (UniProt Q9IH62)
Sequence (Q9IH62 whole entry): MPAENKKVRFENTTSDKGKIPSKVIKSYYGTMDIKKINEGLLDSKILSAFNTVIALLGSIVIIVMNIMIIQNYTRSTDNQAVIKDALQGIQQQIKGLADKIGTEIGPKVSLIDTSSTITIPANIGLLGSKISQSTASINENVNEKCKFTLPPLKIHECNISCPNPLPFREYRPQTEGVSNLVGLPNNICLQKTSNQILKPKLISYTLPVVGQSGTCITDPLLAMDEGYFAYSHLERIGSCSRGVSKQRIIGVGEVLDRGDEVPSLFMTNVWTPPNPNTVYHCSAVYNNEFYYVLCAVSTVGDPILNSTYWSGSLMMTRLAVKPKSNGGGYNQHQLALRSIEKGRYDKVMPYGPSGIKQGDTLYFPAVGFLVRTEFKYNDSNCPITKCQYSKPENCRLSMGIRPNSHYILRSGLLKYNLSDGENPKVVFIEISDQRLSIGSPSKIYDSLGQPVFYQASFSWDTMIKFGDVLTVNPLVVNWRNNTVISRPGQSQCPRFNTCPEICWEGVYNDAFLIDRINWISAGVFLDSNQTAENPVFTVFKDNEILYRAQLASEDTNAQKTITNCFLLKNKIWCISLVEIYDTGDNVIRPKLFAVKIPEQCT

Sequence of ephrinB2 (P52799 28-333): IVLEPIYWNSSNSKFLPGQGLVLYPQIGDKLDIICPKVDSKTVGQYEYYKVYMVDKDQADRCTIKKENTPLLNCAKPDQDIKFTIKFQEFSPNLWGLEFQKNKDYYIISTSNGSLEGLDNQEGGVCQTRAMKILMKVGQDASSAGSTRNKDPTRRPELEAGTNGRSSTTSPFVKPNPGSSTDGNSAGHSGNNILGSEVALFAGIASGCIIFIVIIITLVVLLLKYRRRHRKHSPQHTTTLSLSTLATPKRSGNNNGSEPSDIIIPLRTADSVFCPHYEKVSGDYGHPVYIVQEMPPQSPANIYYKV

Q: With ephrinB2 (from UniProt P52799) as the substance, how does the Kd read?
A: 0.06 nM
